The source of these data is US20240425575A1 (SOTER BIOPHARMA PTE, published 2024).

B1: B2-E2 (VHH)
VHH: EVQLVESGGGLVQPGESLRLSCVASGFPSGFTFSDYQMYWYRQAPGKERELVAIISNDGLRKTYADSVKGRFTISRDNAKNTMFLQMNSLKPEDTAVYVCNVRRANRDDWGQGTQVTVSS
notes: Tested as E. coli TG1 culture supernatant (phagemid pComb3XSS); also called anti-ANG2 heavy-chain single-domain antibody B2-E2
B2: B3-C11 (VHH)
VHH: EVQLVESGGGLVQAGGSLRLSCFVSGSTFSASLMGWYRQAPGKERELVAGISNIGNTVYADSAKGRFTISRDGAKNTVHLQMNALKPEDTAVYYCYATVPRAAWGQGTQVTVSS
notes: Tested as E. coli TG1 culture supernatant (phagemid pComb3XSS); also called anti-ANG2 heavy-chain single-domain antibody B3-C11
B3: B2-A6 (VHH)
VHH: B2 VHH with E1Q, V2L
notes: Tested as E. coli TG1 culture supernatant (phagemid pComb3XSS); also called anti-ANG2 heavy-chain single-domain antibody B2-A6
B4: B4-C11 (VHH)
VHH: QVQLVESGGGLVQAGGSLRLSCAASGSTFSNVVAGWYRQAPGKQRELVAGISNIGDTRYADSVKGRFTISRDNAKKAVYLQMNSLKPEDTAVYYCYAKYWARDYWGQGTQVTVSS
notes: Tested as E. coli TG1 culture supernatant (phagemid pComb3XSS); also called anti-ANG2 heavy-chain single-domain antibody B4-C11
B5: B3-H7 (VHH)
VHH: B4 VHH with Q1E, L4V, F29A, S30I, V32S, A77T, P87S
notes: Tested as E. coli TG1 culture supernatant (phagemid pComb3XSS); also called anti-ANG2 heavy-chain single-domain antibody B3-H7
B6: B1-H9 (VHH)
VHH: B4 VHH with Q1E, G10D, N31S, V32T, V33I, A77T
notes: Tested as E. coli TG1 culture supernatant (phagemid pComb3XSS); also called anti-ANG2 heavy-chain single-domain antibody B1-H9
B7: B2-F10 (VHH)
VHH: QVQLVESGGGLVQAGGSLRLSCGASGSAVSITLMAWYRQAPGKQRELVAGISNIGDTNYVDSVKDRFTISRINAKNAMYLQMNSLKPEDTAVYYCFAQDWGGHHYWGQGTQVTVSS
notes: Tested as E. coli TG1 culture supernatant (phagemid pComb3XSS); also called anti-ANG2 heavy-chain single-domain antibody B2-F10
B8: B4-D3 (VHH)
VHH: QLQLVESGGGLVQPGGSLRLSCVASGASGISFSNRGMAWYRQAPGKQRELVAAIDSAGSPAYAGSVKGRFTISRDNAKNTVFLQMNSLKPEDTAVYYCNQPRFNLWGLGTQVTVSS
notes: Tested as E. coli TG1 culture supernatant; also called anti-ANG2 heavy-chain single-domain antibody B4-D3
B9: B1-G8 (VHH)
VHH: QVQLVESGGGLVQTGDSLRLSCVAPGISFSNRGMAWYRQAPGKQRELVAAIDSAGSQRYAGSVKDRFTISRDNAKNTVFLQMNSLKPEDTAVYYCNQPRFNLWGQGTQVTVSS
notes: Tested as E. coli TG1 culture supernatant (phagemid pComb3XSS); also called anti-ANG2 heavy-chain single-domain antibody B1-G8
B10: B1-G3 (VHH)
VHH: EVQVVESGGGLVQPGGSLRLSCVASMPSGISFSNRGMAWYRQAPGKQRELVAAIDSAGSTRYQDSVKGRFTISRDNAKNTVFLQMNSLKPEDTAVYYCNQPAFKAWGQGTQVTVSS
notes: Tested as E. coli TG1 culture supernatant (phagemid pComb3XSS); also called anti-ANG2 heavy-chain single-domain antibody B1-G3

Residue numbers refer to the chain shown, from its start.

For this assay, the target named is T1, recombinant human ANG2 protein corresponding to Lys275-Phe496 of human ANG2 (human, UniProt O15123 275-496).
T1 construct: also called hANG2
T1 sequence: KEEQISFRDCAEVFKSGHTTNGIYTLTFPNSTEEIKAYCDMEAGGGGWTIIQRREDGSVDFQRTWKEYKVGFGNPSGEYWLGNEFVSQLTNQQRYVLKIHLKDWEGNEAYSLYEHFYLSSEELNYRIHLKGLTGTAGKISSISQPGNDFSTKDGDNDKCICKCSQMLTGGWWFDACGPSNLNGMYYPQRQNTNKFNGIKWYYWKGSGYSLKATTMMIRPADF
As to the kind of experiment: ELISA, hANG2 coated, E. coli supernatant, anti-VHH-HRP. On the procedure:
Single colonies of TG1 host strains of the obtained ten strains of heavy-chain single-domain antibodies were selected, inoculated and cultured overnight. On the next day, the overnight strains were transferred, amplified, induced by 0.5 mM IPTG and cultured in a shaker overnight at 37° C. On the next day, centrifugation was performed to collect supernatant for detection.
An ELISA plate was separately coated with an hANG2 protein solution and BSA in […] and placed overnight at 4° C. Supernatant was discarded, and 300 μL blocking solution (PBS containing 3% BSA) was added to each well and blocked for 2 h at 37° C. Supernatant collected after centrifugation was added to wells of the ELISA plate in 200 μL per well and subjected to standing incubation for 2 h at room temperature, and supernatant was discarded. Washing was performed with PBST (PBS contained 0.1% Tween 20) in 200 μL/well three times. Diluted HRP-labeled anti-VHH secondary antibodies (Genscript, A01861) were added in a volume of 100 μL/well and incubated for 1 h at room temperature, wherein the secondary antibodies were used after dilution according to 1:10000 with a diluent of PBS containing 1% BSA. Washing was performed with PBST in 200 μL/well five times. A TMB color developing solution (BD, 55214) was added in 100 μL/well, and color developing was performed for 8 min at 37° C.2M HCl stopping solution was added in 100 μL/well. After the stopping solution was added, values at 450 nm were read with a microplate reader within 30 minutes.
In general terms: ELISA stands for enzyme-linked immunosorbent assay.
In the case of B1, the “OD Value Obtained after Binding to hANG2” value worked out at 1.96 OD 450 nm.
With B2, the “OD Value Obtained after Binding to hANG2” value came out at 1.63 OD 450 nm.
Under B3 stands 2.39 OD 450 nm; under B4, 1.58 OD 450 nm; under B5, 1.82 OD 450 nm.
Turning to B6, the “OD Value Obtained after Binding to hANG2” value amounted to 1.5 OD 450 nm.
As for B7, the “OD Value Obtained after Binding to hANG2” value was found to be 2.06 OD 450 nm.
B8: the “OD Value Obtained after Binding to hANG2” value is 1.68 OD 450 nm.
As to B9, the “OD Value Obtained after Binding to hANG2” value was determined as 2.02 OD 450 nm.
As for B10, the “OD Value Obtained after Binding to hANG2” value worked out at 1.57 OD 450 nm.
